Laboratory results from the supplement of paper PMC6379048.

Tests used:
Experiment in all cases: Kd (EC50 corrected by depletion factor)
[1] = biological target: TUBB2A (UniProt Q13885)
Procedure, shortened: (§1)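 HEK293-FT lysate (2.5 mg protein/well) was pre-incubated 1 h at 4°C with free RNA oligos (0 nM to 30 μM), then 30 min at 4°C with the same 5′-amino-C6 oligos coupled to NHS-Sepharose beads. Bound proteins were quantified by label-free LC-MS/MS in three biological replicates and two independent experiments, and normalised to the water control. EC50 came from a four-parameter log-logistic fit; Kd is EC50 times a protein-dependent depletion factor.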

[2] = biological target: T1, RBM47 (UniProt A0AV96)
T1 sequence: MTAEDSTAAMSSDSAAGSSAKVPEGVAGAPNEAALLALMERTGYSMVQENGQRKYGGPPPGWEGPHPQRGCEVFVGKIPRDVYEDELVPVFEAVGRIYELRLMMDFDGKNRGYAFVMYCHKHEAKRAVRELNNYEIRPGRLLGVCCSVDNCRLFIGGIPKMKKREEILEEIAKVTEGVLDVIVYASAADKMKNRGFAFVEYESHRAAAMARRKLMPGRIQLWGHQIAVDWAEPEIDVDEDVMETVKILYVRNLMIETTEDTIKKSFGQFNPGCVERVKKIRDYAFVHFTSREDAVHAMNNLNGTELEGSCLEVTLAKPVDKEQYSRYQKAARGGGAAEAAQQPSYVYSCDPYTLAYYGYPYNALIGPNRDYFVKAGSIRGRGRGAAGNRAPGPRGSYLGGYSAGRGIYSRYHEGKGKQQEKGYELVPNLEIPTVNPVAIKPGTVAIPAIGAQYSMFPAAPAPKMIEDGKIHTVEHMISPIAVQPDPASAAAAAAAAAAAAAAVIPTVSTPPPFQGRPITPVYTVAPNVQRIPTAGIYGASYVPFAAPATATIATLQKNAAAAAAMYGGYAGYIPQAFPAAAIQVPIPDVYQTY
Procedure, shortened: as §1

[3] = biological target: RPL7 (UniProt P18124)
Procedure, shortened: as §1

[4] = biological target: T2, ANGEL2 (UniProt Q5VTE6)
T2 sequence: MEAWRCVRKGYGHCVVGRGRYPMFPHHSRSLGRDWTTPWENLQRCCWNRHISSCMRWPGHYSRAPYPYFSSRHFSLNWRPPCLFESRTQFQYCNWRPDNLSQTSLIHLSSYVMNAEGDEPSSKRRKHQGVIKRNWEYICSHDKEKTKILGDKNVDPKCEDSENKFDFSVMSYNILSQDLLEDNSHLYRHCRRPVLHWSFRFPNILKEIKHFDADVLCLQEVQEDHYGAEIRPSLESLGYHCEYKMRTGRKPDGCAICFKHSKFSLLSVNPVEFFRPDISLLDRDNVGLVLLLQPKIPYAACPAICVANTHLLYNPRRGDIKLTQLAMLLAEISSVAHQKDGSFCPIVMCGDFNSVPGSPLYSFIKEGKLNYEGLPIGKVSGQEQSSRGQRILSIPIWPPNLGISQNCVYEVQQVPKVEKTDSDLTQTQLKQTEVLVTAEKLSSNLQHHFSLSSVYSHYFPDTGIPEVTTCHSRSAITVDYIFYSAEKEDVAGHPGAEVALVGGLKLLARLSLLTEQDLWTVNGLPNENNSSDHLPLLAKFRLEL
Procedure, shortened: as §1

[5] = biological target: MRPL12 (UniProt P52815)
Procedure, shortened: as §1

[6] = biological target: MRPL37 (UniProt Q9BZE1)
Procedure, shortened: as §1

[7] = biological target: T3, SRSF7 (UniProt Q16629)
T3 sequence: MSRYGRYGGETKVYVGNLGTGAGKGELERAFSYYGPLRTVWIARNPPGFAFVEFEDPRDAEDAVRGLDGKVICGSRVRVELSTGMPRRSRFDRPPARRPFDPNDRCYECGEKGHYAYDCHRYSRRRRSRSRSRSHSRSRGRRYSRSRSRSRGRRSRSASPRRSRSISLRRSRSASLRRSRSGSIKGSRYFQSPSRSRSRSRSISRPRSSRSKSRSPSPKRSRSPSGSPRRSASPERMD
Procedure, shortened: as §1

[8] = biological target: MRPL39 (UniProt Q9NYK5)
Procedure, shortened: as §1

[9] = biological target: ZNFX1 (UniProt Q9P2E3)
Procedure, shortened: as §1

[10] = biological target: TTC37 (UniProt Q6PGP7)
Procedure, shortened: as §1

[11] = biological target: T4, PLOD1 (UniProt Q02809)
T4 sequence: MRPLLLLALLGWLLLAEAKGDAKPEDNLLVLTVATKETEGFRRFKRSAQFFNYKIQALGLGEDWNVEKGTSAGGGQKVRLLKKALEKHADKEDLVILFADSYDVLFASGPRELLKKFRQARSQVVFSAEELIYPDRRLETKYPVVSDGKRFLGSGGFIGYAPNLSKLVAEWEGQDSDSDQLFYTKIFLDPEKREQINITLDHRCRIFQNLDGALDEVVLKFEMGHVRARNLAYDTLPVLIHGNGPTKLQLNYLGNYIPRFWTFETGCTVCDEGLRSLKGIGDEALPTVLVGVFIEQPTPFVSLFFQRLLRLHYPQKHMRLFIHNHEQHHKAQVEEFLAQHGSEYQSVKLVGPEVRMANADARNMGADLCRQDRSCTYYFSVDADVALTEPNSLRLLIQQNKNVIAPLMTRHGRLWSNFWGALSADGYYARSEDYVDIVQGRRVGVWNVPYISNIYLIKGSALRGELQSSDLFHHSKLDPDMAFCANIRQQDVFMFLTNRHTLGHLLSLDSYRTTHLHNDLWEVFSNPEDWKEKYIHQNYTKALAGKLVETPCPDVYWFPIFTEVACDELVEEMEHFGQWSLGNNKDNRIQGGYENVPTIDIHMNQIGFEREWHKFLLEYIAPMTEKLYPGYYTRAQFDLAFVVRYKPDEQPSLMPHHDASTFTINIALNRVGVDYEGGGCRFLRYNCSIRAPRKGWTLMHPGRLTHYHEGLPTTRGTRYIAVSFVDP
Procedure, shortened: as §1

[12] = biological target: TSN (UniProt Q15631)
Procedure, shortened: as §1

Sequence of TUBB2A (Q13885 whole entry): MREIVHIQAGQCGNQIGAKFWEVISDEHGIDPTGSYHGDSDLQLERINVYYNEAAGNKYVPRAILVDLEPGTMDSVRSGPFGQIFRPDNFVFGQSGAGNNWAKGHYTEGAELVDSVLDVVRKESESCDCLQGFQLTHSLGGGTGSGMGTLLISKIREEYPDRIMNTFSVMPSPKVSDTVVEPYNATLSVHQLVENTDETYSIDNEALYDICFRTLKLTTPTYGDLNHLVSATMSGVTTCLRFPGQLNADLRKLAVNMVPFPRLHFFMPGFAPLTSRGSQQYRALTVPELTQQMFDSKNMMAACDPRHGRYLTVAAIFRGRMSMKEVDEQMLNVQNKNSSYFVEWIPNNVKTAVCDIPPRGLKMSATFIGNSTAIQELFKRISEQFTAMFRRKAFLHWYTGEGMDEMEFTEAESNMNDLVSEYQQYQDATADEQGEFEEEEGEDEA
Sequence of ZNFX1 (Q9P2E3 whole entry): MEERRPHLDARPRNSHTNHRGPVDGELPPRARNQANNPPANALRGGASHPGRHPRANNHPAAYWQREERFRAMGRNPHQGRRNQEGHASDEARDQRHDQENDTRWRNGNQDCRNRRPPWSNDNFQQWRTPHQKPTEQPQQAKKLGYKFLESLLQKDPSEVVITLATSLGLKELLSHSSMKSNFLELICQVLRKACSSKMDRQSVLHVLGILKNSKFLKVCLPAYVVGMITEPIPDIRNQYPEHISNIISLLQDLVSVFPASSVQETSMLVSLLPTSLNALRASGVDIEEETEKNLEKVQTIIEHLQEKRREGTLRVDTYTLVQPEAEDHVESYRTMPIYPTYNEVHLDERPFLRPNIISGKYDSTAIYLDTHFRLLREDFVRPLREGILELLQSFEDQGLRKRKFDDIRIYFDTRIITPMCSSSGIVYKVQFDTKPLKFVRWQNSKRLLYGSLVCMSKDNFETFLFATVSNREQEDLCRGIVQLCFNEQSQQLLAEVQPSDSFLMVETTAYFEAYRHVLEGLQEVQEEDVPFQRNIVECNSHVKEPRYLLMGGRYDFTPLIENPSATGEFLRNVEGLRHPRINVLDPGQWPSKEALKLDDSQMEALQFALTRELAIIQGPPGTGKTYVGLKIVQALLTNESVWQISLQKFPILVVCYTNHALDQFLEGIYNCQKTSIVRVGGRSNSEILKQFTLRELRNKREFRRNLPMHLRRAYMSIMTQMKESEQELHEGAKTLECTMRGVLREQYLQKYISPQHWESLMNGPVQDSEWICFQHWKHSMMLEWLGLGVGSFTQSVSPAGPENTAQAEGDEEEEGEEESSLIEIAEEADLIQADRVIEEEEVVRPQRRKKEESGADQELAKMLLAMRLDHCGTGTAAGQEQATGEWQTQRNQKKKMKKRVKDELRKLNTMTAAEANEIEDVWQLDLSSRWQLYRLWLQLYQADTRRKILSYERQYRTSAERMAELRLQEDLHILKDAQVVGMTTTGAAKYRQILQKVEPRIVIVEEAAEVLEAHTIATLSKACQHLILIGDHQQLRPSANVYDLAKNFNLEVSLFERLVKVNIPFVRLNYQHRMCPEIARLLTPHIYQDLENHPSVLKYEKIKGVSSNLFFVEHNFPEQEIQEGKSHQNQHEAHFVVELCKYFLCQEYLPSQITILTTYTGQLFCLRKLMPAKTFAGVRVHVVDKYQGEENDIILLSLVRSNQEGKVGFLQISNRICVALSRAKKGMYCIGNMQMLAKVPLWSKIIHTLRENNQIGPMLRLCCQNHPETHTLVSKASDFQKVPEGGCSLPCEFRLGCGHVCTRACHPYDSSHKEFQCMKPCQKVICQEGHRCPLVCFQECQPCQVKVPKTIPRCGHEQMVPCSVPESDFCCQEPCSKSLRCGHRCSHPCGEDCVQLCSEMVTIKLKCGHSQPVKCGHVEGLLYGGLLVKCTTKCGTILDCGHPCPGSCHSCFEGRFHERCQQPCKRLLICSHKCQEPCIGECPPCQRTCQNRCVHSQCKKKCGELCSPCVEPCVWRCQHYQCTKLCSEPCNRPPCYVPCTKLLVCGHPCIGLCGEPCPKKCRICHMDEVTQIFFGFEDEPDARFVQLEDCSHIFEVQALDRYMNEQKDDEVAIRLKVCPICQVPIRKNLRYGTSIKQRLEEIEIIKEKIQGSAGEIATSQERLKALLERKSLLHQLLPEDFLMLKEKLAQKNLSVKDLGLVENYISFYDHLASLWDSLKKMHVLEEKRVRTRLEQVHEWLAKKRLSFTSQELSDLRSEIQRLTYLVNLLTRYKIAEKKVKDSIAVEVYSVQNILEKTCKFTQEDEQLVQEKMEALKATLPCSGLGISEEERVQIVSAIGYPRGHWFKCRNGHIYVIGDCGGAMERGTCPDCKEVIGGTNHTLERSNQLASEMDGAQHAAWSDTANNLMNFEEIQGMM
Sequence of TSN (Q15631 whole entry): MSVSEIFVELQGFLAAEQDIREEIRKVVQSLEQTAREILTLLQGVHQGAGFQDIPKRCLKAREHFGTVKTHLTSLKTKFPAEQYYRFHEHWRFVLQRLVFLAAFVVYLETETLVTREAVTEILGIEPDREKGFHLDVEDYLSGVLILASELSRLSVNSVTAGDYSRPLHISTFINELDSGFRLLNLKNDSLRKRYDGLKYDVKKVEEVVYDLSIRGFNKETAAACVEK
Sequence of TTC37 (Q6PGP7 whole entry): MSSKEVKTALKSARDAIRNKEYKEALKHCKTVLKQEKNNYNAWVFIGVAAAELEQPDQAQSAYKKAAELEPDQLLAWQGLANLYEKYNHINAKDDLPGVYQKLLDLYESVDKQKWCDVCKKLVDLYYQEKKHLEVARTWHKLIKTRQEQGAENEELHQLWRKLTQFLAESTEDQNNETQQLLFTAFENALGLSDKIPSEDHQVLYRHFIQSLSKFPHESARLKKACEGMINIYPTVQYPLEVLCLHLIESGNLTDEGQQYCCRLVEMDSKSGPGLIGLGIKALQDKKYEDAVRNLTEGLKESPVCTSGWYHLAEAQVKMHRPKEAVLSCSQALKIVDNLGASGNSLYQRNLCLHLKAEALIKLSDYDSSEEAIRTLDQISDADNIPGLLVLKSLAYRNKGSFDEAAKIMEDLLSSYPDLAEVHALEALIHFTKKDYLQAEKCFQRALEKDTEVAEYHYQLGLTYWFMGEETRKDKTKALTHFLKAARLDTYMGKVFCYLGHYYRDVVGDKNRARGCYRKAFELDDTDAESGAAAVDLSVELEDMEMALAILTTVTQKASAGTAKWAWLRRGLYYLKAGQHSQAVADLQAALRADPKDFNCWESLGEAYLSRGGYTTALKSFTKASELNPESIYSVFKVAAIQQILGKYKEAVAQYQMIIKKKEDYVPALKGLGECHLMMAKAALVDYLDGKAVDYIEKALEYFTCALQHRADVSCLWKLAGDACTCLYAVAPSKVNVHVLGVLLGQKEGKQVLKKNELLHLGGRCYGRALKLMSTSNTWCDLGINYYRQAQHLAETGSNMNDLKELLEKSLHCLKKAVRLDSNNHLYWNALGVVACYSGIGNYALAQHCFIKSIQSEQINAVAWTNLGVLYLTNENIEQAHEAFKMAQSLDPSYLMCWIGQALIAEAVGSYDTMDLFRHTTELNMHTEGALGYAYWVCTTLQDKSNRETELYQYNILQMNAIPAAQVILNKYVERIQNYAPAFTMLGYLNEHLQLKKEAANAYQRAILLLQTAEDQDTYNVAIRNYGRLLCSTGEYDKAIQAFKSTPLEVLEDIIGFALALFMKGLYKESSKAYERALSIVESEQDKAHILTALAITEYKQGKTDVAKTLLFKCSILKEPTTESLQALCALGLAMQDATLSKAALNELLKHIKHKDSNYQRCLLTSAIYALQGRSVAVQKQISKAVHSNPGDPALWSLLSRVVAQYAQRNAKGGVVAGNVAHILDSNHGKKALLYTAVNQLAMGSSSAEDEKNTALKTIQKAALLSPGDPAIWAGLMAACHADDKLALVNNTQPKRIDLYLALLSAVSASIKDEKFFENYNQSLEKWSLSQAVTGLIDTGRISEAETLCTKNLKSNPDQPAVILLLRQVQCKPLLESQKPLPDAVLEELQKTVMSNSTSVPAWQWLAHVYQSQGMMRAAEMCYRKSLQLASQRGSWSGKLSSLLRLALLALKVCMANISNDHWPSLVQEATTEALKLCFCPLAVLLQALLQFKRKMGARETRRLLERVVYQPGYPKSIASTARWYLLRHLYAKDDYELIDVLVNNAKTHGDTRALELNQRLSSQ

AAUAAA
Kd [1]: 1030 nM
Kd [2]: 417 nM
Kd [3]: 3960 nM

CUGUCCU
Kd [4]: 144 nM
Kd [5]: 43.7 nM
Kd [6]: 76.1 nM
Kd [7]: 1000 nM
Kd [8]: 101 nM

UAUUUAU
Kd [9]: 374 nM
Kd [10]: 577 nM
Kd [11]: 4470 nM
Kd [12]: 16.8 nM
